From patent US20030059862A1 (Human Genome Sciences, published 2003)

How the values were obtained:
[1] = target: T1, biotinylated APRIL (Homo sapiens (Human), UniProt O75888 105-250, biotinylated using NHS-biotin at a molar ratio of 20:1 biotin:APRIL); experiment: scFv inhibition of bio-APRIL (5 ng/ml) binding to coated BCMA fusion protein, streptavidin-DELFIA
T1 construct: also called bio-APRIL
T1 sequence: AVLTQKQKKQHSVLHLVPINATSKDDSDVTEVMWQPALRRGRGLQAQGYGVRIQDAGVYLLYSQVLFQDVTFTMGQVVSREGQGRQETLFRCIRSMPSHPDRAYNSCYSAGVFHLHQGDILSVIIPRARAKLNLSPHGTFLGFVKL
Protocol: (§1) APRIL binds to BCMA with higher affinity than its binds to TACI so, inhibition of biotinylated APRIL (bio-APRIL) binding to BCMA can be used to screen selection outputs as periplasmic extracts for neutralizers and then assess potency of the positives as purified scFvs. To perform this assay, each well of a black 96 well flat-bottomed plate (Costar) was coated with 1.25 ng BCMA fusion protein overnight at 4° C. The wells were blocked with 3% milk in PBS for an hour at room temperature. ScFv were then added in the presence of 5 ng/ml biotinylated APRIL for 90 minutes at room temperature. Binding of biotinylated APRIL was detected via streptavidin Delfia (Wallac) added at a 1:1000 dilution in Delfia assay buffer (Wallac). After an hour at room temperature this was read on a Wallac 1420 workstation at 620 nm.

[2] = target: T1, biotinylated APRIL; experiment: scFv inhibition of bio-APRIL (50 ng/ml) binding to coated TACI fusion protein, streptavidin-DELFIA
Protocol: as §1
(§2) An assay similar to that described above can also be used to test if anti-APRIL antibodies of the invention are able to inhibit binding of bio-APRIL to TACI. In this case, the plate was coated with 2.5 ng TACI fusion protein per well and scFv were added in the presence of 50 ng/ml biotinylated APRIL instead of 5 ng/ml. Otherwise, the method was identical to that for the BCMA:bio-APRIL assay.

[3] = target: T1, biotinylated APRIL; experiment: scFv inhibition of bio-APRIL (50 ng/ml) binding to coated TACI fusion protein, streptavidin-DELFIA; partial inhibition
Protocol: as §1, §2

B1: A013B07 (scFv)
scFv: EVQLVQSGAEVKKPGASVKVSCKTSGYTFTDNYMHWVRQAPGQGLEWMGWISPNSSTTLYAQKFRGRVTLTRDTSVSTAYMELSGLDSDDTALYFCARGGRLAGSTVFTPAFEYWGQGTMVTVSSGGGGSGGGGSGGGGSAQSVLTQPPSVSEAPRQRVTISCSGSSSNIGANAVNWYQQLPGKAPKLLIYFDDLLPSGVSDRFSGSKSGTSASLAISGLQSEDEADYYCAAWDDSLNGVVFGGGTKLTVLG
[1]
  IC50: 7.7 nM
[2]
  IC50: 10 nM

B2: A020F03 (scFv)
scFv: EVQLVQSGAEVKKPGASVKVSCKTSGYTFTDNYMHWVRQAPGQGLEWMGWISPNSSTTLYAQKFRGRVTLTRDTSVSTAYMELSGLDSDDTALYFCARGGRLAGSTVFTPAFEYWGRGTMVTVSSGGGGSGGGGSGGGGSAQAVLTQPSSVSEAPRQRVTISCSGSSSNIGNNAVKWYQQLPGKAPKLLIYYDDLLPSGVSDRFSGSKSGTSASLAISGLQSEDEADYYCAAWDDSLNGYVFGTGTKVTVLG
[1]
  IC50: 12 nM
[2]
  IC50: 3.5 nM

B3: A027A11 (scFv)
scFv: QVQLQQSGAEVKKPGSSVKVSCKASGGTFSTYAITWVRQAPGQGLEWMGDIIPVFGIPNYAQMFQDRVTITADESTSTAYLELNSLGAEDTAVYYCARGSQAFEIWGKGTTVTVSSGGGGSGGGGSGGGGSQSVLTQPASVSGSPGQSITISCTGTSSDVGGYNYVSWYQQHPGKAPKLMIYEGSKRPSGVSNRFSGSKSGNTASLTISGLQAEDEADYYCSSYTTRSTRVFGGGTKLTVLG
[1]
  IC50: 2.7 nM
[3]
  IC50: 5.6 nM

B4: A034G03 (scFv)
scFv: QVQLQQSGAEVKKPGSSVKVSCKASGGTFSNYAISWVRQAPGQGLEWMGGIIPLFDTPNYAQKFQGRVTITADESTSTAYMELSSLRSEDTAVYYCARGNTGPRPFDPWGQGTLVTVSSGGGGSGGGGSGGGGSAQAVLTQPSSVSGAPGQRVTISCSATSPNIGAGDEIHWYQVSPGKAPKLLIYGDIKRPSGVSDRFSGSKSGTTASLAITGLRPEDEADYYCQSYDRTLSGSVVFGGGTKVTVLG
[1]
  IC50: 6 nM
[3]
  IC50: 36 nM

B5: A034H05 (scFv)
scFv: EVQLVQSGAEVKKPGSSVKVSCKVSGGSFPNYAINWVRQAPGQGLEWMGSLVPVFLTPNYAERFQDRVTITADESTSTAYMELRSLRSDDTAVFYCARSGGDGYRDYGMDLWGRGTLVTVSSGGGGSGGGGSGGGGSAQSVLTQPPSASGTPGQRVTISCSGSSSNIGRNTVNWFQQLPGTAPKLLIYSSNQRPSGVPDRFAGSKSGTSASLAISGLQSEDEADYYCAAWDDSLNGLVFGGGTKLTVLG
[1]
  IC50: 10 nM
[3]
  IC50: 13 nM

B6: A053H04 (scFv)
scFv: EVQLVQSGAEVKKPGSSVKVSCKASGGTFSNYAISWVRQAPGQGLEWMGGIIPLFDTPNYAQKFQGRVTITADESTSTAYMELSSLRSEDTAVYYCARGNTGPRPFDPWGKGTTVTVSSGGGGSGGGGSGGGGSAQAVLTQPSSVSGAPGQRVTVSCTGSSSNIGAGYEVNWYQQLPGTAPKLLIYGDTNRPSGVPDRFSGSKSGTSASLAITGLQAEDEANYYCQSYDSGPGGPVVFGGGTKLTVLG
[1]
  IC50: 25 nM
[3]
  IC50: 139 nM

B7: A030D09 (scFv)
scFv: QVQLQQSGAEVKKPGSSVKVSCKTSGGAFSHYAIHWVRLAPGQGLEWMGDIIPVYGSTTYAQKFQDRVTISADESTSTAYMELSSLRSEDTAVYYCARSWYYDILTGYWDYYYMDVWGKGTLVTVSSGGGGSGGGGSGGGGSSELTQDPAVSVALGQTVRITCQGDSLRSYYASWYQQKPGQAPVLVIYGKNNRPSGIPDRFSGSSSGNTASLTITGAQAEDEADYYCNSRDSSGNHVVFGGGTKLTVLG
[1]
  IC50: 55 nM
[3]
  IC50: 150 nM
